Measured values taken from publication PMC11969024 (2025).

B1: peptide HD2 (from tick evasin EVA4) / CXCL13 (biotinylated, synthetic) (parent complex)
chain 1: EEDDYTAYAPLTCYFT
chain 2: VLEVYYTSLRCRCVQESSVFIPRRFIDRIQILPRGNGCPRKEIIVWKKNKSIVCVDPQAEWIQRMMEVLRKRSSSTLPVPVFKRKIP
B2: peptide HD2 (from tick evasin EVA4) / CCL22 (biotinylated, synthetic) (parent complex)
chain 1: EEDDYTAYAPLTCYFT
chain 2: GPYGANMEDSVCCRDYVRYRLPLRVVKHFYWTSDSCPRPGVVLLTFRDKEICADPRVPWVKMILNKLSQ

Variants of: B1

| Variant | enrichment |
| --- | --- |
| chain 1 EELDYTAYAPLTCYFT [chain 1 D3L] | -5.21 log2 (difference from the parental peptide) |
| chain 1 EEMDYTAYAPLTCYFT [chain 1 D3M] | -5.03 log2 (difference from the parental peptide) |
| chain 1 EEDGYTAYAPLTCYFT [chain 1 D4G] | -5 log2 (difference from the parental peptide) |
| chain 1 EEDYYTAYAPLTCYFT [chain 1 D4Y] | -2.64 log2 (difference from the parental peptide) |
| chain 1 EEDDYTAGAPLTCYFT [chain 1 Y8G] | -3.39 log2 (difference from the parental peptide) |
| chain 1 EEDDYTAAAPLTCYFT [chain 1 Y8A] | -4.55 log2 (difference from the parental peptide) |
| chain 1 EEDDYTAYAPLMCYFT [chain 1 T12M] | -0.149 log2 (difference from the parental peptide) |
| chain 1 EEDDYTAYAPLFCYFT [chain 1 T12F] | -1.29 log2 (difference from the parental peptide) |
| chain 1 EEDDYTAYAPLDCYFT [chain 1 T12D] | -5.43 log2 (difference from the parental peptide) |
| chain 1 EEDDYTAYANLTCYFT [chain 1 P10N] | -5.21 log2 (difference from the parental peptide) |
| chain 1 EEDDYTAYADLTCYFT [chain 1 P10D] | 0.396 log2 (difference from the parental peptide) |
| chain 1 EEDDYTAYAPLTCYFF [chain 1 T16F] | -1.23 log2 (difference from the parental peptide) |
| chain 1 EEDDYTAYAPLTCYFS [chain 1 T16S] | 0.948 log2 (difference from the parental peptide) |
| chain 1 EEDDYTAYAPLTCYFG [chain 1 T16G] | 2.07 log2 (difference from the parental peptide) |
| chain 1 EEDDYTAYAPLTCYFR [chain 1 T16R] | -7.96 log2 (difference from the parental peptide) |
| chain 1 ESDDYTAYAPLTCYFT [chain 1 E2S] | -2.79 log2 (difference from the parental peptide) |
| chain 1 EWDDYTAYAPLTCYFT [chain 1 E2W] | 1.38 log2 (difference from the parental peptide) |
| chain 1 KEDDYTAYAPLTCYFT [chain 1 E1K] | -4.84 log2 (difference from the parental peptide) |

| Variant | enrichment |
| --- | --- |
| chain 1 DEDDYTAYAPLTCYFT [chain 1 E1D] | 2.17 log2 (difference from the parental peptide) |
| chain 1 SEDDYTAYAPLTCYFT [chain 1 E1S] | -2.39 log2 (difference from the parental peptide) |
| chain 1 EEDDYMAYAPLTCYFT [chain 1 T6M] | 3.02 log2 (difference from the parental peptide) |
| chain 1 EEDDYKAYAPLTCYFT [chain 1 T6K] | -2.94 log2 (difference from the parental peptide) |
| chain 1 EEDDYTTYAPLTCYFT [chain 1 A7T] | 2.08 log2 (difference from the parental peptide) |
| chain 1 EEDDYTAYAPLTLYFT [chain 1 C13L] | -10.1 log2 (difference from the parental peptide) |
| chain 1 EEDDYTAYAPLTCYST [chain 1 F15S] | -6.75 log2 (difference from the parental peptide) |
| chain 1 EEDDYTAYAPLTCHFT [chain 1 Y14H] | -4.76 log2 (difference from the parental peptide) |
| chain 1 EEDDYTAYYPLTCYFT [chain 1 A9Y] | -1.21 log2 (difference from the parental peptide) |
| chain 1 EEDDYTAYHPLTCYFT [chain 1 A9H] | -1.63 log2 (difference from the parental peptide) |
| chain 1 EEDDGTAYAPLTCYFT [chain 1 Y5G] | -3.88 log2 (difference from the parental peptide) |
| chain 1 EEDDMTAYAPLTCYFT [chain 1 Y5M] | -0.226 log2 (difference from the parental peptide) |
| chain 1 EEDDDTAYAPLTCYFT [chain 1 Y5D] | 1.05 log2 (difference from the parental peptide) |
| chain 1 EEDDATAYAPLTCYFT [chain 1 Y5A] | -2.67 log2 (difference from the parental peptide) |
| chain 1 EEDDPTAYAPLTCYFT [chain 1 Y5P] | -1.42 log2 (difference from the parental peptide) |
| chain 1 EEDDHTAYAPLTCYFT [chain 1 Y5H] | -5.1 log2 (difference from the parental peptide) |
| chain 1 EEDDYTAYAPATCYFT [chain 1 L11A] | -7.28 log2 (difference from the parental peptide) |
| chain 1 EEDDYTAYAPWTCYFT [chain 1 L11W] | -1.43 log2 (difference from the parental peptide) |

Variants of: B2

| Variant | enrichment |
| --- | --- |
| chain 1 YEDDYTAYAPLTCYFT [chain 1 E1Y] | -0.831 log2 (difference from the parental peptide) |
| chain 1 FEDDYTAYAPLTCYFT [chain 1 E1F] | -2.24 log2 (difference from the parental peptide) |
| chain 1 EEDDYTAYAPSTCYFT [chain 1 L11S] | 0.482 log2 (difference from the parental peptide) |
| chain 1 EEDDYTAYAPRTCYFT [chain 1 L11R] | 1.13 log2 (difference from the parental peptide) |
| chain 1 EEDDYTAYAPGTCYFT [chain 1 L11G] | -5.39 log2 (difference from the parental peptide) |
| chain 1 EEDDYTAYAPATCYFT [chain 1 L11A] | -0.478 log2 (difference from the parental peptide) |
| chain 1 EEDDYTAYAPFTCYFT [chain 1 L11F] | 0.136 log2 (difference from the parental peptide) |
| chain 1 EEDDYTAYAPPTCYFT [chain 1 L11P] | -5.29 log2 (difference from the parental peptide) |
| chain 1 EEDDYTAYAPWTCYFT [chain 1 L11W] | -0.394 log2 (difference from the parental peptide) |
| chain 1 EEDDYTAYAPCTCYFT [chain 1 L11C] | 0.802 log2 (difference from the parental peptide) |
| chain 1 EEDDYTAYAPLTCTFT [chain 1 Y14T] | 1.08 log2 (difference from the parental peptide) |
| chain 1 EEDDYTAYAPLTCNFT [chain 1 Y14N] | -0.898 log2 (difference from the parental peptide) |
| chain 1 EEDDYTAYAPLTCKFT [chain 1 Y14K] | -0.0931 log2 (difference from the parental peptide) |
| chain 1 EEDDYTAYAPLTCGFT [chain 1 Y14G] | -4.12 log2 (difference from the parental peptide) |
| chain 1 EEDDYTAYAPLTCLFT [chain 1 Y14L] | -2.35 log2 (difference from the parental peptide) |
| chain 1 EEDDYTAYAPLTCVFT [chain 1 Y14V] | 0.032 log2 (difference from the parental peptide) |
| chain 1 EEDDYTAYAPLTCAFT [chain 1 Y14A] | -1.98 log2 (difference from the parental peptide) |
| chain 1 EEDDLTAYAPLTCYFT [chain 1 Y5L] | -1.89 log2 (difference from the parental peptide) |
| chain 1 EEDDSTAYAPLTCYFT [chain 1 Y5S] | -6.78 log2 (difference from the parental peptide) |
| chain 1 EEDDMTAYAPLTCYFT [chain 1 Y5M] | -1.76 log2 (difference from the parental peptide) |
| chain 1 EEDDYTRYAPLTCYFT [chain 1 A7R] | 1.93 log2 (difference from the parental peptide) |
| chain 1 EEDDYTHYAPLTCYFT [chain 1 A7H] | -1.29 log2 (difference from the parental peptide) |
| chain 1 EEDDYTNYAPLTCYFT [chain 1 A7N] | 0.601 log2 (difference from the parental peptide) |
| chain 1 EEDDYTFYAPLTCYFT [chain 1 A7F] | -4.01 log2 (difference from the parental peptide) |
| chain 1 EEDDYTSYAPLTCYFT [chain 1 A7S] | 0.765 log2 (difference from the parental peptide) |
| chain 1 EEDDYTKYAPLTCYFT [chain 1 A7K] | 1.75 log2 (difference from the parental peptide) |

| Variant | enrichment |
| --- | --- |
| chain 1 EEDDYAAYAPLTCYFT [chain 1 T6A] | 2.21 log2 (difference from the parental peptide) |
| chain 1 EEDDYFAYAPLTCYFT [chain 1 T6F] | -4.13 log2 (difference from the parental peptide) |
| chain 1 EEDDYKAYAPLTCYFT [chain 1 T6K] | -1.04 log2 (difference from the parental peptide) |
| chain 1 EEDDYRAYAPLTCYFT [chain 1 T6R] | -0.184 log2 (difference from the parental peptide) |
| chain 1 EEDDYPAYAPLTCYFT [chain 1 T6P] | -4.79 log2 (difference from the parental peptide) |
| chain 1 EEDDYQAYAPLTCYFT [chain 1 T6Q] | 1.04 log2 (difference from the parental peptide) |
| chain 1 EEDDYWAYAPLTCYFT [chain 1 T6W] | 0.246 log2 (difference from the parental peptide) |
| chain 1 EEDDYHAYAPLTCYFT [chain 1 T6H] | -0.511 log2 (difference from the parental peptide) |
| chain 1 EEDDYVAYAPLTCYFT [chain 1 T6V] | -4.41 log2 (difference from the parental peptide) |
| chain 1 EEDDYTAYAPLTCYFN [chain 1 T16N] | 0.543 log2 (difference from the parental peptide) |
| chain 1 EEDDYTAYAPLTCYFF [chain 1 T16F] | -0.929 log2 (difference from the parental peptide) |
| chain 1 EEDDYTAYAPLTCYFP [chain 1 T16P] | 1.71 log2 (difference from the parental peptide) |
| chain 1 EEDDYTAYAPLTCYFC [chain 1 T16C] | -0.313 log2 (difference from the parental peptide) |
| chain 1 EEDDYTAYAPLTCYFR [chain 1 T16R] | 0.774 log2 (difference from the parental peptide) |
| chain 1 EEDWYTAYAPLTCYFT [chain 1 D4W] | -3.58 log2 (difference from the parental peptide) |
| chain 1 EEDQYTAYAPLTCYFT [chain 1 D4Q] | -6.48 log2 (difference from the parental peptide) |
| chain 1 EEDIYTAYAPLTCYFT [chain 1 D4I] | -7.79 log2 (difference from the parental peptide) |
| chain 1 EEDMYTAYAPLTCYFT [chain 1 D4M] | -4.82 log2 (difference from the parental peptide) |
| chain 1 EEDPYTAYAPLTCYFT [chain 1 D4P] | -7.07 log2 (difference from the parental peptide) |
| chain 1 EEDDYTAYAPLSCYFT [chain 1 T12S] | -0.091 log2 (difference from the parental peptide) |
| chain 1 EEDDYTAYAPLPCYFT [chain 1 T12P] | 2.6 log2 (difference from the parental peptide) |
| chain 1 EEDDYTAYAPLRCYFT [chain 1 T12R] | 4.22 log2 (difference from the parental peptide) |
| chain 1 EEDDYTAYAPLNCYFT [chain 1 T12N] | -0.224 log2 (difference from the parental peptide) |
| chain 1 EEDDYTAYAPLACYFT [chain 1 T12A] | -0.997 log2 (difference from the parental peptide) |
| chain 1 EEDDYTAYAPLKCYFT [chain 1 T12K] | 2.34 log2 (difference from the parental peptide) |
| chain 1 EEDDYTAVAPLTCYFT [chain 1 Y8V] | -7.55 log2 (difference from the parental peptide) |

| Variant | enrichment |
| --- | --- |
| chain 1 EEDDYTASAPLTCYFT [chain 1 Y8S] | -8.74 log2 (difference from the parental peptide) |
| chain 1 EEDDYTAYEPLTCYFT [chain 1 A9E] | -1.54 log2 (difference from the parental peptide) |
| chain 1 EEDDYTAYVPLTCYFT [chain 1 A9V] | -7.85 log2 (difference from the parental peptide) |
| chain 1 EEDDYTAYFPLTCYFT [chain 1 A9F] | -6.96 log2 (difference from the parental peptide) |
| chain 1 EEDDYTAYRPLTCYFT [chain 1 A9R] | 0.319 log2 (difference from the parental peptide) |
| chain 1 EEDDYTAYQPLTCYFT [chain 1 A9Q] | -2.13 log2 (difference from the parental peptide) |
| chain 1 EEDDYTAYKPLTCYFT [chain 1 A9K] | -1.67 log2 (difference from the parental peptide) |
| chain 1 EEDDYTAYADLTCYFT [chain 1 P10D] | -7.41 log2 (difference from the parental peptide) |
| chain 1 EEDDYTAYAGLTCYFT [chain 1 P10G] | -7.9 log2 (difference from the parental peptide) |
| chain 1 EEDDYTAYAWLTCYFT [chain 1 P10W] | -5.26 log2 (difference from the parental peptide) |
| chain 1 EEDDYTAYAPLTCYGT [chain 1 F15G] | -2.74 log2 (difference from the parental peptide) |
| chain 1 EEDDYTAYAPLTCYHT [chain 1 F15H] | 0.892 log2 (difference from the parental peptide) |
| chain 1 EEDDYTAYAPLTCYWT [chain 1 F15W] | 0.858 log2 (difference from the parental peptide) |
| chain 1 EEDDYTAYAPLTCYNT [chain 1 F15N] | -0.8 log2 (difference from the parental peptide) |
| chain 1 EEDDYTAYAPLTCYQT [chain 1 F15Q] | -0.747 log2 (difference from the parental peptide) |
| chain 1 EEDDYTAYAPLTCYLT [chain 1 F15L] | -0.246 log2 (difference from the parental peptide) |
| chain 1 EEDDYTAYAPLTVYFT [chain 1 C13V] | -4.77 log2 (difference from the parental peptide) |
| chain 1 EEDDYTAYAPLTDYFT [chain 1 C13D] | -7.57 log2 (difference from the parental peptide) |
| chain 1 EEDDYTAYAPLTTYFT [chain 1 C13T] | -3.64 log2 (difference from the parental peptide) |
| chain 1 EEDDYTAYAPLTEYFT [chain 1 C13E] | -7.93 log2 (difference from the parental peptide) |
| chain 1 EEDDYTAYAPLTNYFT [chain 1 C13N] | -2.81 log2 (difference from the parental peptide) |
| chain 1 EEWDYTAYAPLTCYFT [chain 1 D3W] | -4.6 log2 (difference from the parental peptide) |
| chain 1 EEPDYTAYAPLTCYFT [chain 1 D3P] | -3.61 log2 (difference from the parental peptide) |
| chain 1 EPDDYTAYAPLTCYFT [chain 1 E2P] | -5.46 log2 (difference from the parental peptide) |
